Reference: US8283126B2, “Voltage sensor domains of voltage-dependent ion channel proteins and uses thereof” (The Rockefeller University, priority 2003, dated 2012)

Key:
KvAP channel = target: T1, KvAP channel (Aeropyrum pernix, UniProt Q9YDF8); assay: Electrophysiological assay of KvAP channels reconstituted into planar lipid bilayers; assay type: biochemical
T1 construct: made in house; host or cells: Escherichia coli
T1 sequence (Q9YDF8 14-295 limits assumed): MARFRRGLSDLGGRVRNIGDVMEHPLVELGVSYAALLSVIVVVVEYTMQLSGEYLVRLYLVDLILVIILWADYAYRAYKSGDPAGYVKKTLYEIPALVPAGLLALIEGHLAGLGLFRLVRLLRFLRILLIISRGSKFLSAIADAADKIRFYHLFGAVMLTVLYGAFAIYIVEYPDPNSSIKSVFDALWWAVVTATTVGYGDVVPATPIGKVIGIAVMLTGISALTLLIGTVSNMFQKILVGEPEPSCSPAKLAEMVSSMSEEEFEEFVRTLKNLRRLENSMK
Excerpt: KvAP channels were expressed in Escherichia coli, extracted with decylmaltoside, purified and reconstituted into planar lipid bilayers of 1-palmitoyl-2-oleoyl-phosphotidylglycerol (POPG) and 1-palmitoyl-2-oleoyl-phosphotidylethanolamine (POPE) for functional studies.
To examine the structural similarity of KvAP to eukaryotic K^+ channel pores, the ability of a small protein toxin from scorpion venom to inhibit the KvAP channel was examined.
To determine the orientation of channels incorporated into planar lipid bilayers, we used CTX, which causes inhibition by binding only to the extracellular side. KvAP channels open in response to membrane depolarization (e.g., when the voltage of the CTX-insensitive (intracellular) side of the membrane is made positive relative to the CTX-sensitive (extracellular) side. KvAP channels are strongly voltage-dependent, opening as a function of membrane voltage, similar to Shaker and other eukaryotic neuronal Kv channels.
The isolate voltage sensor immobilized to a resin in the column efficiently purifies toxins from tarantula venom (FIG. 3A).

[1] = target: T2, isolated voltage sensor domain (S1-S4) of KvAP (Aeropyrum pernix, UniProt Q9YDF8); assay: Binding of toxins to isolated voltage sensor domain immobilized on Co2+ affinity column, reverse phase HPLC of eluate; conditions: voltage sensor domain on Co2+ resin column versus control column without domain; elution with 400 mM imidazole
T2 construct: encoding Met1 to Lys147 was cloned into a pQE60 expression vector; made in house; host or cells: E. coli XL1-Blue
T2 sequence (Q9YDF8 with tags, fused parts or gaps): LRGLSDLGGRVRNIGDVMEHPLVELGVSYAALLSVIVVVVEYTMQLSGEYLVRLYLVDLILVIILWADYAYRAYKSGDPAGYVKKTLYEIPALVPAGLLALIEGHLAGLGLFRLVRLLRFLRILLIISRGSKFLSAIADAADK
Protocol: Isolated voltage sensor was expressed and purified according to Example 5. To generate the voltage sensor domain column for isolation of toxins, 0.1 ml of Co^2+ resin was washed with water and then equilibrated with Buffer A (20 mM Tris pH 8.0, 100 mM KCl, and 10 mM DM) in an eppendorf tube by 3-4 rounds of centrifugation (500 rpm) to collect resin, careful removal of the supernatant with a pipette and resuspension of the resin in either 1 ml of water or 0.4 ml of Buffer A.
Approximately 2 mg of voltage sensor domain was added to the equilibrated resin. The resin and voltage sensor domain protein were incubated for ˜15 minutes. The resin was then applied to a micro chromatography column (Biorad). Samples of the voltage sensor domain prior to addition to the resin and the flow through after addition of resin to the column was kept and later run on an SDS gel to ensure that an excess of protein has been added to the resin and saturated with protein. […]
Remaining protein was eluted from both columns with 0.1 ml of Buffer A containing 400 mM imidazole and reduced with 50 mM DTT at 37° C. for 2 hours to improve separation by reverse phase high performance liquid chromatography (HPLC). […] Peaks are collected and analyzed by MALDI-TOF mass spectrometry focusing on the low molecular weight range (˜800-10,000 Da).

| Substance | Kd (KvAP channel; KvAP channel in planar lipid bilayers, read-out: dissociation constant (Kd) for inhibition of the KvAP channel) [µM] | inhibition of KvAP channel currents (KvAP channel; currents elicited by a +100 mV depolarization) | binding to the isolated voltage sensor domain [1] |
| --- | --- | --- | --- |
| charybdotoxin [CTX, reference compound] | ~400 |  |  |
| VSTX1 (ECGKFMWKCKNSNDCCKDLVCSSRWKWCVLASPF) |  | inhibits KvAP channel currents | binds to the domain |
